Blank lines part the entries; values can stand above or below the binder they belong to.
Tests used:
[1] = molecular target: T1, recombinant human PD-1 tagged with histidine tag (hPD-1-His) (human, UniProt Q15116 25-167, limits assumed); experiment: yeast surface display scFv, flow cytometry, 30 nM hPD-1-His
T1 construct: bought (Reprokine); not shown: histidine tag

[2] = molecular target: T2, recombinant human OX40 tagged with histidine tag (hOX40-His) (human, UniProt P43489 29-216); experiment: yeast surface display scFv, flow cytometry, 90 nM hOX40-His
T2 construct: bought (Reprokine); also called hOX-His; not shown: histidine tag
T2 sequence (looked up): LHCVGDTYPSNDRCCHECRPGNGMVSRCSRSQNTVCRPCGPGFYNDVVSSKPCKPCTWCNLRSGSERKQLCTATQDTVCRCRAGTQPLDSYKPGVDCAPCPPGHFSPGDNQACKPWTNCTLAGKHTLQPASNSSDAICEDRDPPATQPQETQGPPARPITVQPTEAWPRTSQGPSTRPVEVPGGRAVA

recombinant human IL-13 [3] = molecular target: T3, recombinant human IL-13 (human, UniProt P35225 35-146); experiment: cell-based or functional assay
[4] = molecular target: IL-2 (specificity ELISA of Example 6) (Homo sapiens (Human), UniProt P60568 21-153); experiment: specificity ELISA, ligand coated
recombinant human IL-13 [5] = molecular target: T3, recombinant human IL-13; experiment: cell-based or functional assay; remark: listed apart in the source
human TSLP = molecular target: T4, human TSLP (human, UniProt Q969D9 29-159); experiment: ELISA, ligand coated, IgG titrated 1 to 1000 nM
T4 construct: also called hTSLP; h-TSLP

[6] = molecular target: T5, recombinant cynomolgus monkey IL-13 (cynomolgus monkey, UniProt Q0PW92 21-132); experiment: ELISA, ligand coated, IgG titrated 1 to 1000 nM
T5 construct: also called rc-IL-13; cIL-13

cynomolgus monkey TSLP = molecular target: T6, cynomolgus monkey TSLP (cynomolgus monkey, UniProt A0A7N9CAT7 29-159); experiment: ELISA, ligand coated, IgG titrated 1 to 1000 nM
T6 construct: also called cTSLP; cyno-TSLP

recombinant human IL-13 [7] = molecular target: T3, recombinant human IL-13; experiment: SPR (BIAcore T200), IgG captured, hIL-13 as analyte 20 to 0.6 nM
BSA = BSA (UniProt P02769 25-607); experiment: specificity ELISA: plate coated with 250 ng ligand, 100 nM IgG, anti-human Fc-HRP
BSA, sequence (P02769 25-607 limits assumed): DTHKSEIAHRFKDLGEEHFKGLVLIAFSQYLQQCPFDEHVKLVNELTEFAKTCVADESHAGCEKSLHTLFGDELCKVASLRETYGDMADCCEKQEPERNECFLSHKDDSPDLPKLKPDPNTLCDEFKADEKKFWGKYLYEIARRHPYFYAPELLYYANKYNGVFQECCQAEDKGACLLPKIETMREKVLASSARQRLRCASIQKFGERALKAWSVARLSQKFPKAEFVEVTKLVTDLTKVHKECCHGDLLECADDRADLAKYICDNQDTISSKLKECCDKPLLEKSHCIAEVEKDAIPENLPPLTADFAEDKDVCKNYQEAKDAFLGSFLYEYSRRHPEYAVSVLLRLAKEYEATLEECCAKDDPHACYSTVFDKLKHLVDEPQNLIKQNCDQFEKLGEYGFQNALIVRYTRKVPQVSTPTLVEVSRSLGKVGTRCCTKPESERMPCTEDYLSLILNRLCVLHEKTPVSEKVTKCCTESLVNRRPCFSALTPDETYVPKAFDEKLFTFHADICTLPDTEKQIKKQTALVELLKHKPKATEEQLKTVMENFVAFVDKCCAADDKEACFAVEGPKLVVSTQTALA

T3 sequence (P35225 35-146 limits assumed): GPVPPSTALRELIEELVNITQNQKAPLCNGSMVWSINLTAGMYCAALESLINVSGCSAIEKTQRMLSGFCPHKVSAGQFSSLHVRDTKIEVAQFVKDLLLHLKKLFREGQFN
IL-2 (specificity ELISA of Example 6), sequence (P60568 21-153 limits assumed): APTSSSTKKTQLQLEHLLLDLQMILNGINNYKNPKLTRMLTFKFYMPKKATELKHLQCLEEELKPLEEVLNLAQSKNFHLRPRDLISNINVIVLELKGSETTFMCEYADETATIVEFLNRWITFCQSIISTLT
T6 sequence (A0A7N9CAT7 entry or part of it): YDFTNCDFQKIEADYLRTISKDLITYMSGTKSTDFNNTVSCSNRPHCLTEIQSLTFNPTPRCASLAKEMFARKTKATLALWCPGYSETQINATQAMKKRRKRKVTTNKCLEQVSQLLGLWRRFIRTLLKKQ
T5 sequence (Q0PW92 entry or part of it): as the sequence (P35225 35-146 limits assumed) above, with G1S, R10K, M42V, S67N, H83R, L100V counted along it
T1 sequence (Q15116 25-167 limits assumed): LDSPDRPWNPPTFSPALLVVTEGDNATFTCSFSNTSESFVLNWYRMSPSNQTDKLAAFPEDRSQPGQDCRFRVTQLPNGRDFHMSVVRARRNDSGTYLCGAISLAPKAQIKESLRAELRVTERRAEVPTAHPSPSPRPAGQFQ

- binding result [1]: binds
- binding result [2]: binds
B1: 3212ACOXC81 (OX40 library) (scFv, V domains shown)
VH: QVQLVESGGGVVQPGRSLRLDCKASGIDFSNSGMHWVRQAPGKGLEWVAVIWYDGSTRYYADSVKGRFTISRDNSKNTLFLQMNSLRAEDTAVYYCATNDDYWGQGTLVTVSS
VL: EIVLTQSPATLSLSPGERATLSCRASQSVIHYLAWYQQKPGQAPRLLIYDASNRATGIPARFSGSGSGTDFTLTISSLEPEDFAVYYCQQYDNWPLTFGQGTKVEIK
notes: not shown: linker

- IC50, inhibition of IL-13 signaling cascade in HEK-Blue IL-4/IL-13 cells (recombinant human IL-13 [3]): 0.025 µM
- binding result [4]: no binding (tested: 100 nM IgG)
- IC50 (read off the curve); HEK-Blue IL-4/IL-13 STAT6-SEAP reporter with 0.4 nM rh-IL-13, OD 620 (recombinant human IL-13 [5]): ~0.02 µM
- EC50 (human TSLP): 0.0128 µM
- EC50 [6]: 0.0015 µM
- EC50 (cynomolgus monkey TSLP): 0.148 µM
- Kd (recombinant human IL-13 [7]): 0.000903 µM
- koff (recombinant human IL-13 [7]): 0.0036 s⁻¹
- kon (recombinant human IL-13 [7]): 4.07e+06 M⁻¹ s⁻¹
B2: BDG33.025 (antibody, human IgG1, V domains shown)
VH: QMQLVESGGGVVQPGRSLRLSCAASGFTFRTYGMHWVRQAPGKGLEWVADIWYDGSNKHYADSVKGRFTITRDNSKNTLNLQMNSLRAEDTAVYYCARAPQWYLVAEPFDLWGQGTMVTVSS
VL: SYVLTQPPSVSVAPGQTARITCGGNLIGSKLVHWYQQKPGQAPVLVVYDDSDRPSLIPERFSGSNSGNTATLTISRVEAGDEADYYCQVWDSSSDGVVFGGGTKLTVL
notes: IgG (human IgG1 format, symmetrical IgG); also called BGD33.025; BDG33.0025
- binding result (BSA): no binding (tested: 100 nM IgG (not on the sheet))

Reference: patent US20240101675A1 (BIOLOJIC DESIGN, published 2024)
